According to article PMC9352680, “A comprehensive thermodynamic model for RNA binding by the Saccharomyces cerevisiae Pumilio protein PUF4”:

Target: T1, PUF4 RNA-binding domain (Saccharomyces cerevisiae, UniProt P25339 537-888)
T1 sequence: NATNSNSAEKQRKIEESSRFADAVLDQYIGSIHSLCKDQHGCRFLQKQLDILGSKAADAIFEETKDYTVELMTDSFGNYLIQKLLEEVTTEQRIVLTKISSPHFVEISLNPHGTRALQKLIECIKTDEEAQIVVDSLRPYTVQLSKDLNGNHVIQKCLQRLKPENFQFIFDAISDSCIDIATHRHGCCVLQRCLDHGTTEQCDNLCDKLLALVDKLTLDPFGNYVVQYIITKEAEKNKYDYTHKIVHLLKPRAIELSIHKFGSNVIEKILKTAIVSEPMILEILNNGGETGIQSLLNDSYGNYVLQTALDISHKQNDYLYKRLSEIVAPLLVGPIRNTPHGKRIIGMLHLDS
Test: Mg; RNA-MaP; 20 mM Na-HEPES pH 7.4, 30 mM KOAc, 0.75 mM MgCl2, 0.1% Tween-20, 5% glycerol, 0.1 mg/mL BSA, 2 mM DTT; 25 C; 0.0125-409.6 nM protein
Conditions: tags: N-His6-TEV cleaved; C-SNAP kept, Cy3B-labelled; label: tethered on chip by stalled RNA polymerase

Row | Binder | Kd [nM]
1 | UCUCUUUGUAUUACAUUCUCUU (ssRNA) [Ic_S1_P5E.1_K5.1_C5.1_H5.1_A5.1_F5.1_[T8C]_[T9A]_[A10T]_T5.1] | 121
2 | UCUCUUUGUAAUCCCAUCUCUU (ssRNA) [Ic_S1_P5E.1_K5.1_C5.1_H5.1_A5.1_[T5A]_[A7C]_F5.1_[T8C]_[T9C]_T5.1] | 868
3 | UCUCUUUGUAAUACUCUCUCUU (ssRNA) [Ic_S1_P5E.1_K5.1_C5.1_H5.1_A5.1_[T5A]_F5.1_[T8C]_[A10C]_T5.1] | 642
4 | UCUCUUUGUAUACCGUUCUCUU (ssRNA) [Ic_S1_P5E.1_K5.1_C5.1_H5.1_A5.1_[T6A]_[A7C]_F5.1_[T8C]_[T9G]_[A10T]_T5.1] | 334
5 | UCUCUUUGUAUGUCACUCUCUU (ssRNA) [Ic_S1_P5E.1_K5.1_C5.1_H5.1_A5.1_[T6G]_[A7T]_F5.1_[T8C]_[T9A]_[A10C]_T5.1] | 132
6 | UCUCUUUGUACAUAUUUCUCUU (ssRNA) [Ic_S1_P5E.1_K5.1_C5.1_H5.1_A5.1_[T5C]_[T6A]_[A7T]_F5.1_[T8A]_[A10T]_T5.1] | 5.5
7 | UCUCUUUGUAUAUCGCUCUCUU (ssRNA) [Ic_S1_P5E.1_K5.1_C5.1_H5.1_A5.1_[T6A]_[A7T]_F5.1_[T8C]_[T9G]_[A10C]_T5.1] | 27.4
8 | UCUCUUUGUACGGUAAUCUCUU (ssRNA) [Ic_S1_P5E.1_K5.1_C5.1_H5.1_A5.1_[T5C]_[T6G]_[A7G]_F5.1_[T9A]_T5.1] | 16.8
9 | UCUCUUUGUAAAUUUCUCUU (ssRNA) [Ic_S1_P3E.1_K3.1_C3.1_H3.1_A3.1_[T5A]_F3.1_[A8T]_T3.1] | 16.9
10 | UCUCUUUGUAUAUAGUUCUCUU (ssRNA) [Ic_S1_P5E.1_K5.1_C5.1_H5.1_A5.1_[T6A]_[A7T]_F5.1_[T8A]_[T9G]_[A10T]_T5.1] | 4.66
11 | UCUCUUUGUACUGUCAUCUCUU (ssRNA) [Ic_S1_P5E.1_K5.1_C5.1_H5.1_A5.1_[T5C]_[A7G]_F5.1_[T9C]_T5.1] | 116
12 | UCUCUUUGUACCCAACUCUCUU (ssRNA) [Ic_S1_P5E.1_K5.1_C5.1_H5.1_A5.1_[T5C]_[T6C]_[A7C]_F5.1_[T8A]_[T9A]_[A10C]_T5.1] | 836
13 | UCUCUUUGUAACUCCAUCUCUU (ssRNA) [Ic_S1_P5E.1_K5.1_C5.1_H5.1_A5.1_[T5A]_[T6C]_[A7T]_F5.1_[T8C]_[T9C]_T5.1] | 616
14 | UCUCUUUGUAAGUUCUUCUCUU (ssRNA) [Ic_S1_P5E.1_K5.1_C5.1_H5.1_A5.1_[T5A]_[T6G]_[A7T]_F5.1_[T9C]_[A10T]_T5.1] | 388
15 | UCUCUUUGUAUCACAUUCUCUU (ssRNA) [Ic_S1_P5E.1_K5.1_C5.1_H5.1_A5.1_[T6C]_F5.1_[T8C]_[T9A]_[A10T]_T5.1] | 106
16 | UCUCUUUGUACCGACCUCUCUU (ssRNA) [Ic_S1_P5E.1_K5.1_C5.1_H5.1_A5.1_[T5C]_[T6C]_[A7G]_F5.1_[T8A]_[T9C]_[A10C]_T5.1] | > 2300

Row | Binder | Kd [nM]
17 | UCUCUUUGUACUCUCGUCUCUU (ssRNA) [Ic_S1_P5E.1_K5.1_C5.1_H5.1_A5.1_[T5C]_[A7C]_F5.1_[T9C]_[A10G]_T5.1] | 70.5
18 | UCUCUUUGUACGUCCCUCUCUU (ssRNA) [Ic_S1_P5E.1_K5.1_C5.1_H5.1_A5.1_[T5C]_[T6G]_[A7T]_F5.1_[T8C]_[T9C]_[A10C]_T5.1] | 394
19 | UCUCUUUGUAUCCCGGUCUCUU (ssRNA) [Ic_S1_P5E.1_K5.1_C5.1_H5.1_A5.1_[T6C]_[A7C]_F5.1_[T8C]_[T9G]_[A10G]_T5.1] | > 2300
20 | UCUCUUUGUAUGUGUCUCUU (ssRNA) [Ic_S1_P3E.1_K3.1_C3.1_H3.1_A3.1_[A6G]_F3.1_[A8G]_T3.1] | 472
21 | UCUCUUUGUACAGUCUUCUCUU (ssRNA) [Ic_S1_P5E.1_K5.1_C5.1_H5.1_A5.1_[T5C]_[T6A]_[A7G]_F5.1_[T9C]_[A10T]_T5.1] | 22.9
22 | UCUCUUUGUAUCGGUAUCUCUU (ssRNA) [Ic_S1_P5E.1_K5.1_C5.1_H5.1_A5.1_[T6C]_[A7G]_F5.1_[T8G]_T5.1] | 43.9
23 | UCUCUUUGUACUAAAAUCUCUU (ssRNA) [Ic_S1_P5E.1_K5.1_C5.1_H5.1_A5.1_[T5C]_F5.1_[T8A]_[T9A]_T5.1] | 58.8
24 | UCUCUUUGUACUCAGCUCUCUU (ssRNA) [Ic_S1_P5E.1_K5.1_C5.1_H5.1_A5.1_[T5C]_[A7C]_F5.1_[T8A]_[T9G]_[A10C]_T5.1] | 945
25 | UCUCUUUGUACAUUAAUCUCUU (ssRNA) [Ic_S1_P5E.1_K5.1_C5.1_H5.1_A5.1_[T5C]_[T6A]_[A7T]_F5.1_[T9A]_T5.1] | 0.904
26 | UCUCUUUGUACCUUUUUCUCUU (ssRNA) [Ic_S1_P5E.1_K5.1_C5.1_H5.1_A5.1_[T5C]_[T6C]_[A7T]_F5.1_[A10T]_T5.1] | 26.7
27 | UCUCUUUGUACGAUCAUCUCUU (ssRNA) [Ic_S1_P5E.1_K5.1_C5.1_H5.1_A5.1_[T5C]_[T6G]_F5.1_[T9C]_T5.1] | 88.9
28 | UCUCUUUGUAACACGGUCUCUU (ssRNA) [Ic_S1_P5E.1_K5.1_C5.1_H5.1_A5.1_[T5A]_[T6C]_F5.1_[T8C]_[T9G]_[A10G]_T5.1] | 2070
29 | UCUCUUUGUAAUCACGUCUCUU (ssRNA) [Ic_S1_P5E.1_K5.1_C5.1_H5.1_A5.1_[T5A]_[A7C]_F5.1_[T8A]_[T9C]_[A10G]_T5.1] | 1250
30 | UCUCUUUGUAAAUAAUUCUCUU (ssRNA) [Ic_S1_P5E.1_K5.1_C5.1_H5.1_A5.1_[T5A]_[T6A]_[A7T]_F5.1_[T8A]_[T9A]_[A10T]_T5.1] | 30.5
31 | UCUCUUUGUAUAUGAUCUCUU (ssRNA) [Ic_S1_P4E.1_K4.1_C4.1_H4.1_A4.1_F4.1_[T8G]_T4.1] | 15.4
32 | UCUCUUUGUAUCUGUCUCUU (ssRNA) [Ib_S1_P3E.1_K3.1_C3.1_H3.1_A3.1_[A6C]_F3.1_[A8G]_T3.1] | 81.8
